These results are taken from patent US20240270846A1 (published 2024).

Substitutions are numbered along the chain they refer to. Names may count otherwise.

B1: CE115HA000 D101P one-arm antibody (antibody, human IgG1, kappa, L234A L235A, N297A, name in Kabat numbering)
heavy: QVQLVESGGGVVQPGRSLRLSCAASGFTFSNAWMHWVRQAPGKGLEWVAQIKAKSNNYATYYAESVKGRFTISRDDSKNSLYLQMNSLKTEDTAVYYCRYVHYGAYYGVPAWGQGTTVTVSSASTKGPSVFPLAPSSKSTSGGTAALGCLVKDYFPEPVTVSWNSGALTSGVHTFPAVLQSSGLYSLSSVVTVPSSSLGTQTYICNVNHKPSNTKVDKKVEPKSCDKTHTCPPCPAPEAAGGPSVFLFPPKPKDTLMISRTPEVTCVVVDVSHEDPEVKFNWYVDGVEVHNAKTKPREEQYASTYRVVSVLTVLHQDWLNGKEYKCKVSNKALPAPIEKTISKAKGQPREPQVYTLPPSRCELTKNQVSLSCAVKGFYPSDIAVEWESNGQPENNYKTTPPVLDSDGSFFLVSKLTVDKSRWQQGNVFSCSVMHEALHNHYTQKSLSLSPDYKDDDDK
chain: EPKSSDKTHTCPPCPAPELLGGPSVFLFPPKPKDTLMISRTPEVTCVVVDVSHEDPEVKFNWYVDGVEVHNAKTKPREEQYNSTYRVVSVLTVLHQDWLNGKEYKCKVSNKALPAPIEKTISKAKGQPREPQVCTLPPSRDELTKNQVSLWCLVKGFYPSDIAVEWESNGQPENNYKTTPPVLDSDGSFFLYSKLTVDKSRWQQGNVFSCSVMHEALHNRYTQKSLSLSP
light: DIVMTQSPLSLPVTPGEPASISCRSSQSLVHSNRNTYLHWYQQKPGQAPRLLIYKVSNRFSGVPDRFSGSGSGTDFTLKISRVEAEDVGVYYCGQGTQVPYTFGQGTKLEIKRTVAAPSVFIFPPSDEQLKSGTASVVCLLNNFYPREAKVQWKVDNALQSGNSQESVTEQDSKDSTYSLSSTLTLSKADYEKHKVYACEVTHQGLSSPVTKSFNRGEC
notes: one-arm antibody
B2: CE115HA000 G65D one-arm antibody (antibody, human IgG1, kappa, L234A L235A, N297A, name in Kabat numbering)
heavy: B1 heavy with G68D, P110D
chain: B1 chain
light: B1 light
notes: one-arm antibody
B3: CE115HA000 D101T one-arm antibody (antibody, human IgG1, kappa, L234A L235A, N297A, name in Kabat numbering)
heavy: B1 heavy with P110T
chain: B1 chain
light: B1 light
notes: one-arm antibody
B4: CE115HA000 D101S one-arm antibody (antibody, human IgG1, kappa, L234A L235A, N297A, name in Kabat numbering)
heavy: B1 heavy with P110S
chain: B1 chain
light: B1 light
notes: one-arm antibody
B5: CE115HA000 D101Y one-arm antibody (antibody, human IgG1, kappa, L234A L235A, N297A, name in Kabat numbering)
heavy: B1 heavy with P110Y
chain: B1 chain
light: B1 light
notes: one-arm antibody
B6: CE115HA000 G65E one-arm antibody (antibody, human IgG1, kappa, L234A L235A, N297A, name in Kabat numbering)
heavy: B1 heavy with G68E, P110D
chain: B1 chain
light: B1 light
notes: one-arm antibody
B7: CE115HA000 D101R one-arm antibody (antibody, human IgG1, kappa, L234A L235A, N297A, name in Kabat numbering)
heavy: B1 heavy with P110R
chain: B1 chain
light: B1 light
notes: one-arm antibody
B8: CE115HA000 D101Q one-arm antibody (antibody, human IgG1, kappa, L234A L235A, N297A, name in Kabat numbering)
heavy: B1 heavy with P110Q
chain: B1 chain
light: B1 light
notes: one-arm antibody
B9: CE115HA000 D101V one-arm antibody (antibody, human IgG1, kappa, L234A L235A, N297A, name in Kabat numbering)
heavy: B1 heavy with P110V
chain: B1 chain
light: B1 light
notes: one-arm antibody
B10: CE115HA000 G98A one-arm antibody (antibody, human IgG1, kappa, L234A L235A, N297A, name in Kabat numbering)
heavy: B1 heavy with G104A, P110D
chain: B1 chain
light: B1 light
notes: one-arm antibody

T1 sequence (P07766 23-126): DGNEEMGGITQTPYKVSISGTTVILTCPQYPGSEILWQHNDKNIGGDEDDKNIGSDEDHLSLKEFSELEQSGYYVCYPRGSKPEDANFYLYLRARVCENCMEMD

The test addresses T1, CD3 epsilon homodimer protein (UniProt P07766 23-126).
T1 construct: Construct of the homodimer protein is not described; also called CD3 (CD3 epsilon)
Kind of test: SPR (Biacore T200), CD3 epsilon homodimer on CM4 chip, one-arm antibody as analyte; ratio to unaltered CE115HA000.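 Note: surface plasmon resonance run at 25 °C with HBS-EP+ as running buffer, CD3 epsilon homodimer attached by amine coupling, antibody passed over as analyte.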 Background: In SPR one partner is held on a chip, and binding of the other changes the refractive index at the surface.
Take B1: the “KD ratio (KD value of CE115HA000/KD value of the altered form)” value (“KD ratio” for short) came to 43.4.

As to B2, the “KD ratio” value stood at 0.61.

For the molecule B3, the “KD ratio” value turned out to be 0.62.

As to B4, the “KD ratio” value worked out at 0.91.

As to B5, the “KD ratio” value was determined as 0.97.

On to B6, for which the “KD ratio” value turned out to be 0.61.

With B7, the “KD ratio” value worked out at 5.66.

As for B8, the “KD ratio” value amounted to 3.55.

Regarding B9, the “KD ratio” value turned out to be 1.18.

Regarding B10, the “KD ratio” value worked out at 0.98.
